# In US9644019B2, “Compounds for treating cardiac damage after ischaemia/reperfusion” (priority 2010, dated 2017):
# Assays:
# EMMPRIN = biological target: T1, EMMPRIN (Mus musculus, UniProt P18572); test: AP-9 peptide / EMMPRIN co-localization in MAEC cells; type: binding; details: DETA-NO 100 μM overnight, 0.08 mg/ml AP-9 peptide
# T1 construct: Said cells were incubated overnight with the nitric oxide donor (DETA-NO) (100 μM) to induce EMMPRIN expression; endogenous in cells; host or cells: MAEC (mouse aortic endothelial cells), fixed with 4% PFA
# T1 sequence (P18572 22-273 isoform P18572-2 limits assumed): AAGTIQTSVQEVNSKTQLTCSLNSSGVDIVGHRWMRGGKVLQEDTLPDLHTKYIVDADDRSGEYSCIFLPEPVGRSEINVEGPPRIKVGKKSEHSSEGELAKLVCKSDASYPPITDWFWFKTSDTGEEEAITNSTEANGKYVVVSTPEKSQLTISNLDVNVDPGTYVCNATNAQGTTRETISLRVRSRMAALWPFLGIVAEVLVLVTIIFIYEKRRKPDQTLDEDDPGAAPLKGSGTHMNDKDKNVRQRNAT
# Protocol: The MAEC cells were incubated overnight with the nitric oxide donor (DETA-NO) (100 μM) to induce EMMPRIN expression (right panel). The MAEC cells without DETA-NO were used as a control (left panel). The MAEC cells were fixed with 4% PFA and incubated with 0.08 mg/ml of AP-9 peptide. EMMPRIN expression was detected using an anti-EMMPRIN antibody (1:1000), observing that both signals co-localize (right panel, top right square). The cores were stained with DAPI.
# MAEC cells (mouse aortic endothelial cells) were used for the in vitro assays. Said cells were incubated overnight with the nitric oxide donor (DETA-NO) (100 μM) to induce EMMPRIN expression. The MAEC cells without DETA-NO were used as a control. The MAEC cells were fixed with 4% PFA and incubated with 0.08 mg/ml of AP-9 peptide. EMMPRIN expression was subsequently detected using an anti-EMMPRIN antibody (1:1000).
# [1] = test system: EMMPRIN-induced MMP-9 expression; test: EMMPRIN-induced MMP-9 expression in MAEC cells (anti-MMP-9 immunodetection); type: cell-based, mouse; details: 100 μM DETA-NO, AP-9 peptide 0.08 mg/ml overnight, vs PBS
# Protocol: MAEC cells were incubated with 100 μM of DETA-NO to induce EMMPRIN expression (B, D). MAEC cells without DETA-NO were used as a control (A, C). After 3 hours of treatment with DETA-NO, the MAEC cells were incubated overnight with AP-9 peptide (0.08 mg/ml) (C, D) or with PBS (A, B). The MAEC cells were fixed with 4% PFA, and MMP-9 expression was detected using an anti-MMP-9 antibody (1:1000). […] The cores were stained with DAPI.
# Likewise, to ascertain if AP-9 peptide inhibited EMMPRIN-induced MMP-9 expression, MAEC cells were incubated with 100 μM of DETA-NO to induce EMMPRIN expression. After 3 hours of treatment with DETA-NO, the MAEC cells were incubated overnight with AP-9 peptide (0.08 mg/ml) or with PBS as a control without peptide. MAEC cells without DETA-NO were used as a control. Finally, the MAEC cells were fixed with 4% PFA and MMP-9 expression was detected using an anti-MMP-9 antibody (1:1000).
sequence,measurement,setting,value
"YKLPGHHHHYRP (SEQ ID NO: 3) [AP-9 peptide, EMMPRIN antagonist peptide described in the literature]",binding to EMMPRIN (co-localization of signals),EMMPRIN,binds specifically
same,EMMPRIN-induced MMP-9 expression,[1],inhibition
